Assay results published in US12679878B2, “CRF2 receptor agonists and their use in therapy” (SANOFI, priority 2020, dated 2026).
Blank lines part the entries; values can stand above or below the binder they belong to. Starred links: 1 amine or outer side, 2 acyl side, 3 side chain; linkers in the order of their positions; H or OH if unused. Non-standard residues stand in square brackets, D forms with d. Groups on a side chain read outwards from the residue. No end group written: not given here. *: point of attachment. C18 diacid = O=C(O)CCCCCCCCCCCCCCCCC(=O)*; γGlu = O=C(O)[C@H](CCC(=O)[*:2])N[*:1]; Palmitoyl = CCCCCCCCCCCCCCCC(=O)*; AEEA = NCCOCCOCC(=O)O; Aib = CC(C)(N)C(=O)O

Biological target: human corticotropin-releasing factor 2α (CRF2 α receptor) (human), Q13324
Test: cell-based or functional assay

human corticotropin-releasing factor 2α (CRF2 α receptor) (human), Q13324, sequence (Q13324 20-411): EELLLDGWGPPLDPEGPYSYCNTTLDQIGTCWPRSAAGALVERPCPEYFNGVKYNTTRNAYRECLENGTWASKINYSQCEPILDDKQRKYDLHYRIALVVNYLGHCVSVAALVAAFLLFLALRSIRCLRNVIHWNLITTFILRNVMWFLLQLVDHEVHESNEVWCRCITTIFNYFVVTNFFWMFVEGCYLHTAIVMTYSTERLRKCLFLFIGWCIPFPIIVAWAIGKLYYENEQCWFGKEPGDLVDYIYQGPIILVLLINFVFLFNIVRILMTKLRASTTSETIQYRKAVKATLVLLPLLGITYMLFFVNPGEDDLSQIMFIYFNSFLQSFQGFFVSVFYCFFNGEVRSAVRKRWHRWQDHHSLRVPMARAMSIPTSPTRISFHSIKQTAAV

EC50 [nM], 0% HSA: 1.45 nM
B2: SEQ ID NO: 36 (peptide)
peptide: IVLSLD[dV]PTKLK([AEEA-AEEA-γGlu-C18 diacid])QKLLKQERQRK[Aib]REQAEKNKRILERV-NH2
modifications: N-terminus assumed
SMILES: CC[C@H](C)[C@H](N)C(=O)N[C@H](C(=O)N[C@@H](CC(C)C)C(=O)N[C@@H](CO)C(=O)N[C@@H](CC(C)C)C(=O)N[C@@H](CC(=O)O)C(=O)N[C@@H](C(=O)N1CCC[C@H]1C(=O)N[C@H](C(=O)N[C@@H](CCCCN)C(=O)N[C@@H](CC(C)C)C(=O)N[C@@H](CCCCNC(=O)COCCOCCNC(=O)COCCOCCNC(=O)CC[C@H](NC(=O)CCCCCCCCCCCCCCCCC(=O)O)C(=O)O)C(=O)N[C@@H](CCC(N)=O)C(=O)N[C@@H](CCCCN)C(=O)N[C@@H](CC(C)C)C(=O)N[C@@H](CC(C)C)C(=O)N[C@@H](CCCCN)C(=O)N[C@@H](CCC(N)=O)C(=O)N[C@@H](CCC(=O)O)C(=O)N[C@@H](CCCNC(=N)N)C(=O)N[C@@H](CCC(N)=O)C(=O)N[C@@H](CCCNC(=N)N)C(=O)N[C@@H](CCCCN)C(=O)NC(C)(C)C(=O)N[C@@H](CCCNC(=N)N)C(=O)N[C@@H](CCC(=O)O)C(=O)N[C@@H](CCC(N)=O)C(=O)N[C@@H](C)C(=O)N[C@@H](CCC(=O)O)C(=O)N[C@@H](CCCCN)C(=O)N[C@@H](CC(N)=O)C(=O)N[C@@H](CCCCN)C(=O)N[C@@H](CCCNC(=N)N)C(=O)N[C@H](C(=O)N[C@@H](CC(C)C)C(=O)N[C@@H](CCC(=O)O)C(=O)N[C@@H](CCCNC(=N)N)C(=O)N[C@H](C(N)=O)C(C)C)[C@@H](C)CC)[C@@H](C)O)C(C)C)C(C)C

EC50 [nM], 0% HSA: 0.24 nM
EC50 [nM], 0.1% HSA: 3.82 nM
B3: SEQ ID NO: 35 (peptide)
peptide: IVLSLDVPIKLK([AEEA-AEEA-γGlu-C18 diacid])KILLEQEKQKKQREQAETNKQILAQV-NH2
modifications: N-terminus assumed
SMILES: CC[C@H](C)[C@H](N)C(=O)N[C@H](C(=O)N[C@@H](CC(C)C)C(=O)N[C@@H](CO)C(=O)N[C@@H](CC(C)C)C(=O)N[C@@H](CC(=O)O)C(=O)N[C@H](C(=O)N1CCC[C@H]1C(=O)N[C@H](C(=O)N[C@@H](CCCCN)C(=O)N[C@@H](CC(C)C)C(=O)N[C@@H](CCCCNC(=O)COCCOCCNC(=O)COCCOCCNC(=O)CC[C@H](NC(=O)CCCCCCCCCCCCCCCCC(=O)O)C(=O)O)C(=O)N[C@@H](CCCCN)C(=O)N[C@H](C(=O)N[C@@H](CC(C)C)C(=O)N[C@@H](CC(C)C)C(=O)N[C@@H](CCC(=O)O)C(=O)N[C@@H](CCC(N)=O)C(=O)N[C@@H](CCC(=O)O)C(=O)N[C@@H](CCCCN)C(=O)N[C@@H](CCC(N)=O)C(=O)N[C@@H](CCCCN)C(=O)N[C@@H](CCCCN)C(=O)N[C@@H](CCC(N)=O)C(=O)N[C@@H](CCCNC(=N)N)C(=O)N[C@@H](CCC(=O)O)C(=O)N[C@@H](CCC(N)=O)C(=O)N[C@@H](C)C(=O)N[C@@H](CCC(=O)O)C(=O)N[C@H](C(=O)N[C@@H](CC(N)=O)C(=O)N[C@@H](CCCCN)C(=O)N[C@@H](CCC(N)=O)C(=O)N[C@H](C(=O)N[C@@H](CC(C)C)C(=O)N[C@@H](C)C(=O)N[C@@H](CCC(N)=O)C(=O)N[C@H](C(N)=O)C(C)C)[C@@H](C)CC)[C@@H](C)O)[C@@H](C)CC)[C@@H](C)CC)C(C)C)C(C)C

Continued, binder first:

B1: SEQ ID NO: 1 (peptide)
peptide: IVLSLDVPIGLK([γGlu-Palmitoyl])QILLEQEKQEKEKQQAETNAQILAQV-NH2
modifications: N-terminus assumed
SMILES: CCCCCCCCCCCCCCCC(=O)N[C@@H](CCC(=O)NCCCC[C@H](NC(=O)[C@H](CC(C)C)NC(=O)CNC(=O)[C@@H](NC(=O)[C@@H]1CCCN1C(=O)[C@@H](NC(=O)[C@H](CC(=O)O)NC(=O)[C@H](CC(C)C)NC(=O)[C@H](CO)NC(=O)[C@H](CC(C)C)NC(=O)[C@@H](NC(=O)[C@@H](N)[C@@H](C)CC)C(C)C)C(C)C)[C@@H](C)CC)C(=O)N[C@@H](CCC(N)=O)C(=O)N[C@H](C(=O)N[C@@H](CC(C)C)C(=O)N[C@@H](CC(C)C)C(=O)N[C@@H](CCC(=O)O)C(=O)N[C@@H](CCC(N)=O)C(=O)N[C@@H](CCC(=O)O)C(=O)N[C@@H](CCCCN)C(=O)N[C@@H](CCC(N)=O)C(=O)N[C@@H](CCC(=O)O)C(=O)N[C@@H](CCCCN)C(=O)N[C@@H](CCC(=O)O)C(=O)N[C@@H](CCCCN)C(=O)N[C@@H](CCC(N)=O)C(=O)N[C@@H](CCC(N)=O)C(=O)N[C@@H](C)C(=O)N[C@@H](CCC(=O)O)C(=O)N[C@H](C(=O)N[C@@H](CC(N)=O)C(=O)N[C@@H](C)C(=O)N[C@@H](CCC(N)=O)C(=O)N[C@H](C(=O)N[C@@H](CC(C)C)C(=O)N[C@@H](C)C(=O)N[C@@H](CCC(N)=O)C(=O)N[C@H](C(N)=O)C(C)C)[C@@H](C)CC)[C@@H](C)O)[C@@H](C)CC)C(=O)O
EC50 [nM], 0% HSA: 0.01 nM

B4: SEQ ID NO: 37 (peptide)
peptide: IVLSLDVPTKLK([AEEA-AEEA-γGlu-C18 diacid])QKLLKQERQRKERQQAETNKRILERV-NH2
modifications: N-terminus assumed
SMILES: CC[C@H](C)[C@H](N)C(=O)N[C@H](C(=O)N[C@@H](CC(C)C)C(=O)N[C@@H](CO)C(=O)N[C@@H](CC(C)C)C(=O)N[C@@H](CC(=O)O)C(=O)N[C@H](C(=O)N1CCC[C@H]1C(=O)N[C@H](C(=O)N[C@@H](CCCCN)C(=O)N[C@@H](CC(C)C)C(=O)N[C@@H](CCCCNC(=O)COCCOCCNC(=O)COCCOCCNC(=O)CC[C@H](NC(=O)CCCCCCCCCCCCCCCCC(=O)O)C(=O)O)C(=O)N[C@@H](CCC(N)=O)C(=O)N[C@@H](CCCCN)C(=O)N[C@@H](CC(C)C)C(=O)N[C@@H](CC(C)C)C(=O)N[C@@H](CCCCN)C(=O)N[C@@H](CCC(N)=O)C(=O)N[C@@H](CCC(=O)O)C(=O)N[C@@H](CCCNC(=N)N)C(=O)N[C@@H](CCC(N)=O)C(=O)N[C@@H](CCCNC(=N)N)C(=O)N[C@@H](CCCCN)C(=O)N[C@@H](CCC(=O)O)C(=O)N[C@@H](CCCNC(=N)N)C(=O)N[C@@H](CCC(N)=O)C(=O)N[C@@H](CCC(N)=O)C(=O)N[C@@H](C)C(=O)N[C@@H](CCC(=O)O)C(=O)N[C@H](C(=O)N[C@@H](CC(N)=O)C(=O)N[C@@H](CCCCN)C(=O)N[C@@H](CCCNC(=N)N)C(=O)N[C@H](C(=O)N[C@@H](CC(C)C)C(=O)N[C@@H](CCC(=O)O)C(=O)N[C@@H](CCCNC(=N)N)C(=O)N[C@H](C(N)=O)C(C)C)[C@@H](C)CC)[C@@H](C)O)[C@@H](C)O)C(C)C)C(C)C
EC50 [nM], 0% HSA: 1.6 nM
